Experimental data taken from article PMC11574045, “A cofactor-induced repressive type of transcription factor condensation can be induced by synthetic peptides to suppress tumorigenesis” (The EMBO Journal, 2024).

B1: IRF5 (protein, UniProt Q13568 1-498, looked up)
Interferon regulatory factor 5: MNQSIPVAPTPPRRVRLKPWLVAQVNSCQYPGLQWVNGEKKLFCIPWRHATRHGPSQDGDNTIFKAWAKETGKYTEGVDEADPAKWKANLRCALNKSRDFRLIYDGPRDMPPQPYKIYEVCSNGPAPTDSQPPEDYSFGAGEEEEEEEELQRMLPSLSLTEDVKWPPTLQPPTLRPPTLQPPTLQPPVVLGPPAPDPSPLAPPPGNPAGFRELLSEVLEPGPLPASLPPAGEQLLPDLLISPHMLPLTDLEIKFQYRGRPPRALTISNPHGCRLFYSQLEATQEQVELFGPISLEQVRFPSPEDIPSDKQRFYTNQLLDVLDRGLILQLQGQDLYAIRLCQCKVFWSGPCASAHDSCPNPIQREVKTKLFSLEHFLNELILFQKGQTNTPPPFEIFFCFGEEWPDRKPREKKLITVQVVPVAARLLLEMFSGELSWSADSIRLQISNPDLKDRMVEQFKELHHIWQSQQRLQPVAQAPPGAGLGVGQGPWPMHPAGMQ
B2: LASS4 (protein, UniProt Q9HA82 1-394, looked up)
Ceramide synthase 4: MLSSFNEWFWQDRFWLPPNVTWTELEDRDGRVYPHPQDLLAALPLALVLLAMRLAFERFIGLPLSRWLGVRDQTRRQVKPNATLEKHFLTEGHRPKEPQLSLLAAQCGLTLQQTQRWFRRRRNQDRPQLTKKFCEASWRFLFYLSSFVGGLSVLYHESWLWAPVMCWDRYPNQTLKPSLYWWYLLELGFYLSLLIRLPFDVKRKDFKEQVIHHFVAVILMTFSYSANLLRIGSLVLLLHDSSDYLLEACKMVNYMQYQQVCDALFLIFSFVFFYTRLVLFPTQILYTTYYESISNRGPFFGYYFFNGLLMLLQLLHVFWSCLILRMLYSFMKKGQMEKDIRSDVEESDSSEEAAAAQEPLQLKNGAAGGPRPAPTDGPRSRVAGRLTNRHTTAT
B3: LASS3 (protein, UniProt Q8IU89 1-383, looked up)
Ceramide synthase 3: MFWTFKEWFWLERFWLPPTIKWSDLEDHDGLVFVKPSHLYVTIPYAFLLLIIRRVFEKFVASPLAKSFGIKETVRKVTPNTVLENFFKHSTRQPLQTDIYGLAKKCNLTERQVERWFRSRRNQERPSRLKKFQEACWRFAFYLMITVAGIAFLYDKPWLYDLWEVWNGYPKQPLLPSQYWYYILEMSFYWSLLFRLGFDVKRKDFLAHIIHHLAAISLMSFSWCANYIRSGTLVMIVHDVADIWLESAKMFSYAGWTQTCNTLFFIFSTIFFISRLIVFPFWILYCTLILPMYHLEPFFSYIFLNLQLMILQVLHLYWGYYILKMLNRCIFMKSIQDVRSDDEDYEEEEEEEEEEATKGKEMDCLKNGLRAERHLIPNGQHGH
B4: KLRG1 (protein, UniProt Q96E93 1-195, looked up)
Killer cell lectin-like …: MTDSVIYSMLELPTATQAQNDYGPQQKSSSSRPSCSCLVAIALGLLTAVLLSVLLYQWILCQGSNYSTCASCPSCPDRWMKYGNHCYYFSVEEKDWNSSLEFCLARDSHLLVITDNQEMSLLQVFLSEAFCWIGLRNNSGWRWEDGSPLNFSRISSNSFVQTCGAINKNGLQASSCEVPLHWVCKKCPFADQALF
B5: IRF8 (protein, UniProt Q02556 1-426, looked up)
Interferon regulatory factor 8: MCDRNGGRRLRQWLIEQIDSSMYPGLIWENEEKSMFRIPWKHAGKQDYNQEVDASIFKAWAVFKGKFKEGDKAEPATWKTRLRCALNKSPDFEEVTDRSQLDISEPYKVYRIVPEEEQKCKLGVATAGCVNEVTEMECGRSEIDELIKEPSVDDYMGMIKRSPSPPEACRSQLLPDWWAQQPSTGVPLVTGYTTYDAHHSAFSQMVISFYYGGKLVGQATTTCPEGCRLSLSQPGLPGTKLYGPEGLELVRFPPADAIPSERQRQVTRKLFGHLERGVLLHSSRQGVFVKRLCQGRVFCSGNAVVCKGRPNKLERDEVVQVFDTSQFFRELQQFYNSQGRLPDGRVVLCFGEEFPDMAPLRSKLILVQIEQLYVRQLAEEAGKSCGAGSVMQAPEEPPPDQVFRMFPDICASHQRSFFRENQQITV
B6: JDP2 (protein, UniProt P97875 1-163, looked up)
Jun dimerization protein 2: MMPGQIPDPSVTAGSLPGLGPLTGLPSSALTTEELKYADIRNIGAMIAPLHFLEVKLGKRPQPVKSELDEEEERRKRRREKNKVAAARCRNKKKERTEFLQRESERLELMNAELKTQIEELKLERQQLILMLNRHRPTCIVRTDSVRTPESEGNPLLEQLDKK
B7: JUNB (protein, UniProt P17275 1-347, looked up)
Transcription factor JunB: MCTKMEQPFYHDDSYTATGYGRAPGGLSLHDYKLLKPSLAVNLADPYRSLKAPGARGPGPEGGGGGSYFSGQGSDTGASLKLASSELERLIVPNSNGVITTTPTPPGQYFYPRGGGSGGGAGGAGGGVTEEQEGFADGFVKALDDLHKMNHVTPPNVSLGATGGPPAGPGGVYAGPEPPPVYTNLSSYSPASASSGGAGAAVGTGSSYPTTTISYLPHAPPFAGGHPAQLGLGRGASTFKEEPQTVPEARSRDATPPVSPINMEDQERIKVERKRLRNRLAATKCRKRKLERIARLEDKVKTLKAENAGLSSTAGLLREQVAQLKQKVMTHVSNGCQLLLGVKGHAF
B8: LBX2 (protein, UniProt Q9WUN8 1-195, looked up)
Transcription factor LBX2: MNSVHQRRTPFSIADILGPSMVPEAPSAPQLPEAGPDPASPLCALEELASKTFLGHSPRATPQPSEGRAAPEAPPGPGAGVRRRRKSRTAFTAQQVLELERRFVFQKYLAPSERDGLAARLGLANAQVVTWFQNRRAKLKRDVEEMRADVASLCGLSPGVLCYPALPDSTSSPDPGPSGPDSEPNLSDEEIQVDD
B9: ARRB1 (protein, UniProt P49407 1-418, looked up)
Beta-arrestin-1: MGDKGTRVFKKASPNGKLTVYLGKRDFVDHIDLVDPVDGVVLVDPEYLKERRVYVTLTCAFRYGREDLDVLGLTFRKDLFVANVQSFPPAPEDKKPLTRLQERLIKKLGEHAYPFTFEIPPNLPCSVTLQPGPEDTGKACGVDYEVKAFCAENLEEKIHKRNSVRLVIRKVQYAPERPGPQPTAETTRQFLMSDKPLHLEASLDKEIYYHGEPISVNVHVTNNTNKTVKKIKISVRQYADICLFNTAQYKCPVAMEEADDTVAPSSTFCKVYTLTPFLANNREKRGLALDGKLKHEDTNLASSTLLREGANREILGIIVSYKVKVKLVVSRGGLLGDLASSDVAVELPFTLMHPKPKEEPPHREVPENETPVDTNLIELDTNDDDIVFEDFARQRLKGMKDDKEEEEDGTGSPQLNNR
B10: JADE2 (protein, UniProt Q9NQC1 1-790, looked up)
E3 ubiquitin-protein ligase …: MEEKRRKYSISSDNSDTTDSHATSTSASRCSKLPSSTKSGWPRQNEKKPSEVFRTDLITAMKIPDSYQLSPDDYYILADPWRQEWEKGVQVPAGAEAIPEPVVRILPPLEGPPAQASPSSTMLGEGSQPDWPGGSRYDLDEIDAYWLELINSELKEMERPELDELTLERVLEELETLCHQNMARAIETQEGLGIEYDEDVVCDVCRSPEGEDGNEMVFCDKCNVCVHQACYGILKVPTGSWLCRTCALGVQPKCLLCPKRGGALKPTRSGTKWVHVSCALWIPEVSIGCPEKMEPITKISHIPASRWALSCSLCKECTGTCIQCSMPSCVTAFHVTCAFDHGLEMRTILADNDEVKFKSFCQEHSDGGPRNEPTSEPTEPSQAGEDLEKVTLRKQRLQQLEEDFYELVEPAEVAERLDLAEALVDFIYQYWKLKRKANANQPLLTPKTDEVDNLAQQEQDVLYRRLKLFTHLRQDLERVRNLCYMVTRRERTKHAICKLQEQIFHLQMKLIEQDLCRGLSTSFPIDGTFFNSWLAQSVQITAENMAMSEWPLNNGHREDPAPGLLSEELLQDEETLLSFMRDPSLRPGDPARKARGRTRLPAKKKPPPPPPQDGPGSRTTPDKAPKKTWGQDAGSGKGGQGPPTRKPPRRTSSHLPSSPAAGDCPILATPESPPPLAPETPDEAASVAADSDVQVPGPAASPKPLGRLRPPRESKVTRRLPGARPDAGMGPPSAVAERPKVSLHFDTETDGYFSDGEMSDSDVEAEDGGVQRGPREAGAEEVVRMGVLAS
B11: JUP (protein, UniProt P14923 1-745, looked up)
Junction plakoglobin: MEVMNLMEQPIKVTEWQQTYTYDSGIHSGANTCVPSVSSKGIMEEDEACGRQYTLKKTTTYTQGVPPSQGDLEYQMSTTARAKRVREAMCPGVSGEDSSLLLATQVEGQATNLQRLAEPSQLLKSAIVHLINYQDDAELATRALPELTKLLNDEDPVVVTKAAMIVNQLSKKEASRRALMGSPQLVAAVVRTMQNTSDLDTARCTTSILHNLSHHREGLLAIFKSGGIPALVRMLSSPVESVLFYAITTLHNLLLYQEGAKMAVRLADGLQKMVPLLNKNNPKFLAITTDCLQLLAYGNQESKLIILANGGPQALVQIMRNYSYEKLLWTTSRVLKVLSVCPSNKPAIVEAGGMQALGKHLTSNSPRLVQNCLWTLRNLSDVATKQEGLESVLKILVNQLSVDDVNVLTCATGTLSNLTCNNSKNKTLVTQNSGVEALIHAILRAGDKDDITEPAVCALRHLTSRHPEAEMAQNSVRLNYGIPAIVKLLNQPNQWPLVKATIGLIRNLALCPANHAPLQEAAVIPRLVQLLVKAHQDAQRHVAAGTQQPYTDGVRMEEIVEGCTGALHILARDPMNRMEIFRLNTIPLFVQLLYSSVENIQRVAAGVLCELAQDKEAADAIDAEGASAPLMELLHSRNEGTATYAAAVLFRISEDKNPDYRKRVSVELTNSLFKHDPAAWEAAQSMIPINEPYGDDMDATYRPMYSSDVPLDPLEMHMDMDGDYPIDTYSDGLRPPYPTADHMLA
B12: IRF9 (protein, UniProt Q00978 1-393, looked up)
Interferon regulatory factor 9: MASGRARCTRKLRNWVVEQVESGQFPGVCWDDTAKTMFRIPWKHAGKQDFREDQDAAFFKAWAIFKGKYKEGDTGGPAVWKTRLRCALNKSSEFKEVPERGRMDVAEPYKVYQLLPPGIVSGQPGTQKVPSKRQHSSVSSERKEEEDAMQNCTLSPSVLQDSLNNEEEGASGGAVHSDIGSSSSSSSPEPQEVTDTTEAPFQGDQRSLEFLLPPEPDYSLLLTFIYNGRVVGEAQVQSLDCRLVAEPSGSESSMEQVLFPKPGPLEPTQRLLSQLERGILVASNPRGLFVQRLCPIPISWNAPQAPPGPGPHLLPSNECVELFRTAYFCRDLVRYFQGLGPPPKFQVTLNFWEESHGSSHTPQNLITVKMEQAFARYLLEQTPEQQAAILSLV
B13: LASS6 (protein, UniProt Q6ZMG9 1-384, looked up)
Ceramide synthase 6: MAGILAWFWNERFWLPHNVTWADLKNTEEATFPQAEDLYLAFPLAFCIFMVRLIFERFVAKPCAIALNIQANGPQIAPPNAILEKVFTAITKHPDEKRLEGLSKQLDWDVRSIQRWFRQRRNQEKPSTLTRFCESMWRFSFYLYVFTYGVRFLKKTPWLWNTRHCWYNYPYQPLTTDLHYYYILELSFYWSLMFSQFTDIKRKDFGIMFLHHLVSIFLITFSYVNNMARVGTLVLCLHDSADALLEAAKMANYAKFQKMCDLLFVMFAVVFITTRLGIFPLWVLNTTLFESWEIVGPYPSWWVFNLLLLLVQGLNCFWSYLIVKIACKAVSRGKVSKDDRSDIESSSDEEDSEPPGKNPHTATTTNGTSGTNGYLLTGSCSMDD

tested on: HEK293FT cells transfected with TF library; assay: Screening of TF condensates based on fluorescent puncta; format: cell-based; conditions: Figure 1B numerical data; TF library screen, one value per transcriptional factor
Procedure, shortened: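 HEK293FT, PEI transfection of TF library, 60 h; ±glucose 12 h; 4% PFA fix, 0.05% Triton X-100 permeabilization, 5% BSA block; anti-Flag/anti-GAL4 overnight at 4 °C, Alexa 488 secondary 1 h; high-content imaging, 50 fields/well.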

Compared with B1, B2 is higher in “Z score of condensed fraction” value: -0.5098 for the first, -0.3767 for the second.

Going from B3 to B4, the “Z score of condensed fraction” value rises from -1.783 to 2.376.

First: B5
Second: B6
The “Z score of condensed fraction” value of the first is higher: 2.123 for the first, -1.182 for the second.

First: B7
Second: B8
The “Z score of condensed fraction” value of the first is lower: -0.9915 for the first, -0.9162 for the second.

First: B9
Second: B10
The “Z score of condensed fraction” value of the first is higher: 0.4258 for the first, -1.0906 for the second.

Compared with B11, B12 is higher in “Z score of condensed fraction” value: -0.6246 for the first, 1.05 for the second.

B13 was tested, and the “Z score of condensed fraction” value was -0.6196.
